Experimental data reported in US20250332277A1 (Eli Lilly, published 2025).

T1: human PTK-7 on cells (OV90-PTK-7, NCI-H446, OVCAR-3) (human, UniProt Q13308 31-1070)
T1 sequence: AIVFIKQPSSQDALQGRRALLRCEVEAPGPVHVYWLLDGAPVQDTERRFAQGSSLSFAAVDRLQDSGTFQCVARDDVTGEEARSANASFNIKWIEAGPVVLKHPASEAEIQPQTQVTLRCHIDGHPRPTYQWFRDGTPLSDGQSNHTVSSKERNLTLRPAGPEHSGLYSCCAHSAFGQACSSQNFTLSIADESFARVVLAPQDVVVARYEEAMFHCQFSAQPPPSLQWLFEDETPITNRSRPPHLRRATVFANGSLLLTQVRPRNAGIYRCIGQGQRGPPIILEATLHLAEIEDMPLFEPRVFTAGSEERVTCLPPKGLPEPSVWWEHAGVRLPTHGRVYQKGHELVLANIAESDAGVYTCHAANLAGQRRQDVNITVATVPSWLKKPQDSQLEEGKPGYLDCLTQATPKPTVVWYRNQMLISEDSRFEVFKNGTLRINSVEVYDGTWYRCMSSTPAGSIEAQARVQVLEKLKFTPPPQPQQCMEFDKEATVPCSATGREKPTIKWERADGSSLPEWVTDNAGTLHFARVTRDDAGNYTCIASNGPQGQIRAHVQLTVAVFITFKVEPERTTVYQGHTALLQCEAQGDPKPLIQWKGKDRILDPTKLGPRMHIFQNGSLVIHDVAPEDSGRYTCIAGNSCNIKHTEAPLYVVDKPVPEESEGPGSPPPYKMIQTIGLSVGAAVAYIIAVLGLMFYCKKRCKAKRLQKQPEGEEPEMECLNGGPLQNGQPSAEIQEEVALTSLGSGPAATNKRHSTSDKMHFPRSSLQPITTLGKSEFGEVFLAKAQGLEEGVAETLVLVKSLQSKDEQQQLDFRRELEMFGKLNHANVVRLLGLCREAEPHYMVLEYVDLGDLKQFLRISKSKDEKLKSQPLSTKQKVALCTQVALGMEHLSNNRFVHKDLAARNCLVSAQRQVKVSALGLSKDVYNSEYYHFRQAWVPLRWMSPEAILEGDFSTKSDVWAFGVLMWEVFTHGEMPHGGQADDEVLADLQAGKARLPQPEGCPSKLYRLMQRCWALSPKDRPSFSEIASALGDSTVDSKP

T2: recombinant human PTK7 (Acro Biosystems Cat. No. PT7-H52H3) (human, UniProt Q13308 31-704)
T2 construct: Bought recombinant protein; also called human PTK7 analyte
T2 sequence: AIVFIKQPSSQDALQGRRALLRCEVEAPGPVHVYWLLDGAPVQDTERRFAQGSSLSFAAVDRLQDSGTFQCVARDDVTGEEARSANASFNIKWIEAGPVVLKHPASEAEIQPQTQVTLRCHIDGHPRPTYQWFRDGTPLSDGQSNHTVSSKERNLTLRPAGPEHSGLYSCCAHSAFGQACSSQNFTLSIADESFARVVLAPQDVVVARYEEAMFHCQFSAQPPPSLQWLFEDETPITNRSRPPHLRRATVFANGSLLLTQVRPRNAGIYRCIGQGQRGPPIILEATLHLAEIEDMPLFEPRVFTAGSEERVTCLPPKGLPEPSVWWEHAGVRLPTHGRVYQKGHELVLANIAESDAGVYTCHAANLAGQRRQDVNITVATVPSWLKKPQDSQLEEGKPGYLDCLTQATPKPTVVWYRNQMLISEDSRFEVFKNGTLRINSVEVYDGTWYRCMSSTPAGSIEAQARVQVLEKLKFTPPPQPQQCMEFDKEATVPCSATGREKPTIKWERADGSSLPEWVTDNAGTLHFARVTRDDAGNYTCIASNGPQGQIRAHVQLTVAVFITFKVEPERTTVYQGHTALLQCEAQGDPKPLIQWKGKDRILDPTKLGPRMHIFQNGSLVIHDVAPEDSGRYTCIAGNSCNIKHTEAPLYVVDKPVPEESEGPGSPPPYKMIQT

B1: Ab1-PSAR10-VA-exatecan (other)
heavy: EVQLVESGGGLVKPGGSLRLSCAASGFTFSSYIMNWVRQAPGKGLEWVSSISSSSTFIYYADSVKGRFTISRDNAKNSLYLQMNSLRAEDTAVYYCAKGFDYWGQGTLVTVSSASTKGPSVFPLAPSSKSTSGGTAALGCLVKDYFPEPVTVSWNSGALTSGVHTFPAVLQSSGLYSLSSVVTVPSSSLGTQTYICNVNHKPSNTKVDKRVEPKSCDKTHTCPPCPAPEAAGGPSVFLFPPKPKDTLMISRTPEVTCVVVSVSHEDPEVKFNWYVDGVEVHNAKTKPREEQYNSTYRVVSVLTVLHQDWLNGKEYKCKVSNKALPAPIEKTISKAKGQPREPQVYTLPPSREEMTKNQVSLTCLVKGFYPSDIAVEWESNGQPENNYKTTPPVLDSDGSFFLYSKLTVDKSRWQQGNVFSCSVMHEALHNHYTQKSLSLSPGK
light: DIQLTQSPSFLSASVGDRVTITCRASQDISSYLVWYQQKPGKAPKLLIYAASTLQSGVPSRFSGSGSGTEFTLTISSLQPEDFATYYCQQLNTYPRTFGQGTKVEIKRTVAAPSVFIFPPSDEQLKSGTASVVCLLNNFYPREAKVQWKVDNALQSGNSQESVTEQDSKDSTYSLSSTLTLSKADYEKHKVYACEVTHQGLSSPVTKSFNRGEC
modifications: PSAR10-VA-exatecan linker-payload (Formula XV) on cysteine thiols after full reduction of the antibody (DAR 8 procedure); positions not stated for this ADC
notes: Antibody-drug conjugate of Ab1; also called Ab1-VA-Exatecan
B2: Cofetuzumab (antibody, V domains shown)
VH: QVQLVQSGPEVKKPGASVKVSCKASGYTFTDYAVHWVRQAPGKRLEWIGVISTYNDYTYNNQDFKGRVTMTRDTSASTAYMELSRLRSEDTAVYYCARGNSYFYALDYWGQGTSVTVSS
VL: EIVLTQSPATLSLSPGERATLSCRASESVDSYGKSFMHWYQQKPGQAPRLLIYRASNLESGIPARFSGSGSGTDFTLTISSLEPEDFAVYYCQQSNEDPWTFGGGTKLEIK
B3: Ab1 (antibody, human IgG1, kappa, L234A L235A, V domains shown)
VH: EVQLVESGGGLVKPGGSLRLSCAASGFTFSSYIMNWVRQAPGKGLEWVSSISSSSTFIYYADSVKGRFTISRDNAKNSLYLQMNSLRAEDTAVYYCAKGFDYWGQGTLVTVSS
VL: DIQLTQSPSFLSASVGDRVTITCRASQDISSYLVWYQQKPGKAPKLLIYAASTLQSGVPSRFSGSGSGTEFTLTISSLQPEDFATYYCQQLNTYPRTFGQGTKVEIKR
notes: Fully human antibody; also called Antibody 1; PTK-7 Antibody Ab1
B4: Ab2 (antibody, human IgG1, kappa, L234A L235A, V domains shown)
VH: QVQLQESGPGLVKPSETLSLTCTVSGGSISTYYWSWIRQPAGKGLEWIGRIYTSGLTNYNPSLKSRVTMSVDTSKNQFSLKLSSVTAADTAVYYCARDPHYYDGSGFDYWGQGTLVTVSS
VL: not shown
notes: Fully human antibody; also called Antibody 2
B5: Ab4 (antibody, human IgG1, kappa, L234A L235A, V domains shown)
VH: EVQLVESGGGLVKPGGSLRLSCAASGFTFSSYSMNWVRQAPGKGLEWVSSIDSSSSFIYYADSVKGRFTISRDNAKNSLYLQMNSLRAEDTAVYYCARGTGLFDFWGQGTLVTVSS
VL: EIVLTQSPGTLSLSPGERATLSCRASQSFSSSYLAWYQQKPGQAPRLLIYGASSRATGIPDRFSGSGSGTDFTLTISRLEPEDFAVYYCQQYGRTPWTFGQGTKVEIKR
notes: Fully human antibody; also called Antibody 4; PTK-7 Antibody Ab4

Experiments:
[1] = molecular target: T1, human PTK-7 on cells (OV90-PTK-7, …); assay: cell-based or functional assay
[2] = molecular target: T2, recombinant human PTK7 (Acro Biosystems …); assay: SPR, Biacore 8K+, ADC captured by anti-human Fc, human PTK7 as analyte, 37 C, 1:1 model
Procedure: A Biacore 8K+ instrument (Cytiva, Marlborough, MA) was used to determine kinetics and affinity parameters for the binding interactions of ADCs binding to recombinant human PTK7 (Acro Biosystems Cat. No. PT7-H52H3, Newark, DE).
In each analysis cycle, a different ADC was captured on flow cell 2 of each channel by injecting a 5 μg/mL solution at 10 μL/min for 2 minutes. After capture, the same analyte was injected on flow cells 1 and 2 in all 8 channels for 2 minutes at 30 μL/min and dissociation was monitored for 10 minutes. After dissociation, all surfaces were regenerated with three consecutive 1-minute injections of 75 mM phosphoric acid at 10 μL/min. ADC capture and analyte cycles were repeated to obtain human PTK7 analyte binding of each ADC at analyte concentrations of 0, 2.47, 7.41, 22.2, 66.7, 200, and 600 nMs.
Sensorgram data were reference subtracted and blank subtracted, then globally fit with the default 1:1 binding model in Biacore Insight Evaluation Software v3.0.12.15655, as shown in Table 4.

[3] = molecular target: T1, human PTK-7 on cells (OV90-PTK-7, …); assay: flow cytometry, OVCAR3 cells
Procedure: (§1) OV90-PTK-7, overexpressing engineered ovarian tumor line representing high expression, NCI-H446 human lung cancer cells representing medium endogenous expression and OVCAR-3 human ovarian cancer cells representing low endogenous expression. […] OV90 parental cells and Namalwa-luc-GFP cells were selected as the PTK-7 negative cell lines. Antibody binding was quantified via flow cytometry and both the EC₅₀ of the binding curves and the maximum binding MFI for each antibody were recorded.
(§2) Cells were dissociated using non-enzymatic dissociation buffer for 5 min at 37° C. Cells were counted and aliquoted to a V-bottom polypropylene 96-well plate at 10⁵ cells/well. Cells were centrifuged at 1800 rpm×3 min and the supernatant discarded. An 11-point antibody dilution series was prepared in assay buffer (1×PBS containing 5% FBS) starting at 300 nM and diluting 1:4 down. The dilution series was added to cells at 100 μL/well and mixed by pipetting. Several untreated control wells/cell lines were prepared in assay buffer alone. Cells and antibodies were incubated at 4° C. on an orbital shaker for 1 hour. After incubation, the assay plates were centrifuged and washed twice with 300 μL/well of assay buffer. Cell pellets were then stained with a 1:500 dilution of Alexa647 conjugated mouse anti-human IgG secondary antibody in assay buffer, at 100 μL/well. Assay plates were incubated shaking in the dark at 4° C. for 1 hour. After incubation, plates were centrifuged, and the cells were washed twice with 300 μL/well of assay buffer. A 1:2000 dilution of Zombie Green viability marker in 1×PBS was aliquoted to the cells at 100 μL/well and plates were incubated in the dark for 10 min shaking at room temperature. Cell pellets were then washed 1× with assay buffer and fixed with 200 μL/well of 4% paraformaldehyde in 1×PBS in the dark at room temperature for 15 min. Cells were centrifuged and washed before resuspending in 100 μL of assay buffer for acquisition on Attune Cytpix Cytometer.
(§3) Cells were acquired on an Attune Cytpix Cytometer and FCS files generated using Attune™ Cytometric Software (v. 6.0.1). FCS files were then analyzed on FlowJo (v10.8.1).

[4] = molecular target: T1, human PTK-7 on cells (OV90-PTK-7, …); assay: flow cytometry, NCI-H446 cells
Procedure: as §1, §2, §3

[5] = molecular target: T1, human PTK-7 on cells (OV90-PTK-7, …); assay: flow cytometry, OV90-PTK-7 cells
Procedure: as §1, §2, §3

[6] = molecular target: T1, human PTK-7 on cells (OV90-PTK-7, …); assay: flow cytometry, OVCAR3 cells; against cofetuzumab
Procedure: as §1
as §2, with “Cells were centrifuged and washed before resuspending in 100 μL of assay buffer for acquisition on Attune Cytpix Cytometer.” left out
as §3

[7] = molecular target: T1, human PTK-7 on cells (OV90-PTK-7, …); assay: flow cytometry, NCI-H446 cells; against cofetuzumab
Procedure: as §1
as §2, with “Cells were centrifuged and washed before resuspending in 100 μL of assay buffer for acquisition on Attune Cytpix Cytometer.” left out
as §3

[8] = molecular target: T1, human PTK-7 on cells (OV90-PTK-7, …); assay: flow cytometry, OV90-PTK-7 cells; against cofetuzumab
Procedure: as §1
as §2, with “Cells were centrifuged and washed before resuspending in 100 μL of assay buffer for acquisition on Attune Cytpix Cytometer.” left out
as §3

Row | Binder | Cytotoxicity IC50, OVCAR-3 cells (CellTiter-Glo, 7 days) [1] [nM] | Kd [2] [nM] | koff [2] [s⁻¹] | kon [2] [M⁻¹ s⁻¹] | Average Max MFI [3] [MFI] | EC50 [3] [nM] | Average Max MFI [4] [MFI] | EC50 [4] [nM] | Average Max MFI [5] [MFI] | EC50 [5] [nM] | % of Cofetuzumab (Average Max MFI) [6] [%] | % of Cofetuzumab (Average Max MFI) [7] [%] | % of Cofetuzumab (Average Max MFI) [8] [%]
1 | B1 | 4 | 28.9 | 0.0342 | 1.19e+06 |  |  |  |  |  |  |  |  | 
2 | B2 |  |  |  |  | 21900 | 0.7 | 26800 | 0.54 | 68500 | 1.41 |  |  | 
3 | B3 |  |  |  |  | 15700 | 2.81 | 23200 | 0.7 | 66100 | 1.25 | 71.6 | 86.3 | 96.5
4 | B4 |  |  |  |  | 19200 |  | 26200 | 0.6 | 70500 | 1.83 | 87.7 | 97.6 | 103
5 | B5 |  |  |  |  | 16400 | 0.95 | 26100 | 0.54 | 69900 | 1.28 | 75 | 97.4 | 102
